Test results: patent US6764837 (BOARD OF TRUSTEES OF THE UNIVERSITY OF ARKANSAS, dated 2004)

B1: His-tagged RpoA (α subunit of RNA polymerase) of A. tumefaciens (other)
chain: MIQKNWQELIKPNKVEFTSSSRTKATLVAEPLERGFGLTLGNALRRVLLSSLRGAAVTAVQIDGVLHEFSSIPGVREDVTDIVLNIKEIAIKMDGDDSKRMVVRKQGPGSVTAGDIQTVGDIEILNPDHVICTLDEGAEIRMEFTVNNGKGYVPAERNRAEDAPIGLIPVDSLYSPVKKVSYKVENTREGQVLDYDKLIMTIETNGSVSGEDAVAFAARILQDQLGVFVNFDEPQKEAEEESVTELAFNPALLKKVDELELSVRSANCLKNDNIVYIGDLIQKTEAEMLRTPNFGRKSLNEIKEVLASMGLHLGMEVPAWPPENIEDLAKRYEDQY
notes: not shown: N-terminal His tag from a pQE vector (Qiagen)

How the values were obtained:
[1] = molecular target: T1, RpoA delta C-terminal 8 (residues 1-328) deletion of 329-336 (Agrobacterium tumefaciens) (UniProt P0A4E3); assay: cell_activity; details: pAD8 in E. coli MC4100(pSY215) with VirGcon; vector control 3; indirect reporter
T1 sequence: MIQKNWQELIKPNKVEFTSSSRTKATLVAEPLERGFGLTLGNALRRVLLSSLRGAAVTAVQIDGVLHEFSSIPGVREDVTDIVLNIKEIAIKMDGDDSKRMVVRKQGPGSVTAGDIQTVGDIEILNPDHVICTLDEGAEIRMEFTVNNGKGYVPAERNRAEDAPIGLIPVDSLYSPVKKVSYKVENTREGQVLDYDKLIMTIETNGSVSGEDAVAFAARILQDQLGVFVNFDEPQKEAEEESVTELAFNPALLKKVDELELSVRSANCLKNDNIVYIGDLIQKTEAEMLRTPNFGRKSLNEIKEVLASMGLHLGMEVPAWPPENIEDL

[2] = molecular target: T2, RpoA (RNAP alpha subunit), untagged (Agrobacterium tumefaciens) (UniProt P0A4E3); assay: cell_activity; details: pPS1.3 in E. coli MC4100(pSY215) with VirGcon; vector control 3; indirect reporter
T2 sequence: B1 chain

[3] = molecular target: T3, E. coli RNA polymerase β′ subunit (Escherichia coli, UniProt P0A8T7 1-1407); assay: in vitro reconstitution of RNAP, SDS-PAGE (FIG. 4A)
T3 construct: also called E. coli β′
T3 sequence (P0A8T7 whole entry): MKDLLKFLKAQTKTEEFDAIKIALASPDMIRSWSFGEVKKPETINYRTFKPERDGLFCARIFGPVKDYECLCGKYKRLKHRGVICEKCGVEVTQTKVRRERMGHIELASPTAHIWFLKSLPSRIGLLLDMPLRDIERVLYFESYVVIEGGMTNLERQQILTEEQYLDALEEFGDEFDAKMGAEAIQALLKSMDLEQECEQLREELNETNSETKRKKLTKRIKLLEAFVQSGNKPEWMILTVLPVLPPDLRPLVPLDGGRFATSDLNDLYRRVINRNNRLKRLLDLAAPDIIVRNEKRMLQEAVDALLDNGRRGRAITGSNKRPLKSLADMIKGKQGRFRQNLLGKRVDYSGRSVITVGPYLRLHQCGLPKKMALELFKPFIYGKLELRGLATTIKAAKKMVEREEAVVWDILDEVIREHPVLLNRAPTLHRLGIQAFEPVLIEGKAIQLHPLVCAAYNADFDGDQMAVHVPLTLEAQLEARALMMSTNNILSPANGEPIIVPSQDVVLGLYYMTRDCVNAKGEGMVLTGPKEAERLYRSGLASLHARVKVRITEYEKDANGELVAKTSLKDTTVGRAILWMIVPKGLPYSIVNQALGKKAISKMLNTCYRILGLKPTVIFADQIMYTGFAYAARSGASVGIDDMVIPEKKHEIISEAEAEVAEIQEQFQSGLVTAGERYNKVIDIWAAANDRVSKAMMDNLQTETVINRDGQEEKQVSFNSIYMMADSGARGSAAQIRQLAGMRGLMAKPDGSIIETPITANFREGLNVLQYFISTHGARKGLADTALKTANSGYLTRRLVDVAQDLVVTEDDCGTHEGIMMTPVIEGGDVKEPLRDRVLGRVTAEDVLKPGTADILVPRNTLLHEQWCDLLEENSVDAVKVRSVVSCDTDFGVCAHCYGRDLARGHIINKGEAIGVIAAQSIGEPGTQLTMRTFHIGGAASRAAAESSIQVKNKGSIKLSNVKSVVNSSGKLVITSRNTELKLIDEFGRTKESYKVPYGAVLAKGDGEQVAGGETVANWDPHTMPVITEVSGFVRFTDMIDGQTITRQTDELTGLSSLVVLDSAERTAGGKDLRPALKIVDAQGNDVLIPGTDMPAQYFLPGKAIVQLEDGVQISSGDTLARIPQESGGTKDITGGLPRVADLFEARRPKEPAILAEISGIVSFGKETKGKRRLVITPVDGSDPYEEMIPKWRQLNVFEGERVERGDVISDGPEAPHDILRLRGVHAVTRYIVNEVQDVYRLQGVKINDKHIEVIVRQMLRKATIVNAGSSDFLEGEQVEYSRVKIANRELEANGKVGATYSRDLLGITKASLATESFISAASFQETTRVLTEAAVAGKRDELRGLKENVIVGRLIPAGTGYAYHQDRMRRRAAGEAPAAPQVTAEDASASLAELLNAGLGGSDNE

[4] = molecular target: T4, E. coli RNA polymerase β subunit (Escherichia coli, UniProt P0A8V2 1-1342); assay: as above
T4 construct: also called E. coli β
T4 sequence (P0A8V2 whole entry): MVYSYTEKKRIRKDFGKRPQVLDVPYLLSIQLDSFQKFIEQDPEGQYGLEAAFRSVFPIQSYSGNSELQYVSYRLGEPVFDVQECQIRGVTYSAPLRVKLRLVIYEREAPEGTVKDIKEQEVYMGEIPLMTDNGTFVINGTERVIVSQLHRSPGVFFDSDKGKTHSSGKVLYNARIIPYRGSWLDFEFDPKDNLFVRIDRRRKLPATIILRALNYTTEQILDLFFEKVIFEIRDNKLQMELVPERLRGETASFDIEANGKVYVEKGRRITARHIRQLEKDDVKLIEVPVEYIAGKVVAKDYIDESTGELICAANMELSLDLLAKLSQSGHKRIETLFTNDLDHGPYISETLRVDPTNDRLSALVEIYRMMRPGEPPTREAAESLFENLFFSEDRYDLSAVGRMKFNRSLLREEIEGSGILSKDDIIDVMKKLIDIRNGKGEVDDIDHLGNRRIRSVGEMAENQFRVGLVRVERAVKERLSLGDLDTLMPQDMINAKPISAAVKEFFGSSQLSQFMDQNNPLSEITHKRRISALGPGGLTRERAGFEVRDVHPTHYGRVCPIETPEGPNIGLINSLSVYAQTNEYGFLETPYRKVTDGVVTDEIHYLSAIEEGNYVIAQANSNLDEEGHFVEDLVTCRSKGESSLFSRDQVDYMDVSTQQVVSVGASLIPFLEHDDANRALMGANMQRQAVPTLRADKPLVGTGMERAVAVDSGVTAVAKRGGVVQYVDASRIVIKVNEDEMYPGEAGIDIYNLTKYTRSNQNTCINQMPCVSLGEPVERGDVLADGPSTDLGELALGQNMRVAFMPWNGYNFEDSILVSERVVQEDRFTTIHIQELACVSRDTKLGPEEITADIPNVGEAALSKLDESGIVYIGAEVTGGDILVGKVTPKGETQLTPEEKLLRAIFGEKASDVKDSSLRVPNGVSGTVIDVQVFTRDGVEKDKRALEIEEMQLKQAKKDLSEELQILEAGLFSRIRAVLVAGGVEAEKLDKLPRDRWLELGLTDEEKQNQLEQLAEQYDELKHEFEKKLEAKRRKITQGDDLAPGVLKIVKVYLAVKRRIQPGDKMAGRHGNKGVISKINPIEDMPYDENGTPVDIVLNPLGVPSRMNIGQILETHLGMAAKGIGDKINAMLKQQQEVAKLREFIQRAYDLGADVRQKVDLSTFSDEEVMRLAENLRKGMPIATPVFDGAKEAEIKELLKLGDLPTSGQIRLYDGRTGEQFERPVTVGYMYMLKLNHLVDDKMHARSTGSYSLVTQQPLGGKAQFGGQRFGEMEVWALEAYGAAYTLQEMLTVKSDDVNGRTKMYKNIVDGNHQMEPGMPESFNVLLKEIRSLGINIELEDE

[5] = molecular target: T5, E. coli RNA polymerase σ70 subunit (Escherichia coli, UniProt P00579 1-613); assay: as above
T5 construct: also called σ^70
T5 sequence (P00579 whole entry): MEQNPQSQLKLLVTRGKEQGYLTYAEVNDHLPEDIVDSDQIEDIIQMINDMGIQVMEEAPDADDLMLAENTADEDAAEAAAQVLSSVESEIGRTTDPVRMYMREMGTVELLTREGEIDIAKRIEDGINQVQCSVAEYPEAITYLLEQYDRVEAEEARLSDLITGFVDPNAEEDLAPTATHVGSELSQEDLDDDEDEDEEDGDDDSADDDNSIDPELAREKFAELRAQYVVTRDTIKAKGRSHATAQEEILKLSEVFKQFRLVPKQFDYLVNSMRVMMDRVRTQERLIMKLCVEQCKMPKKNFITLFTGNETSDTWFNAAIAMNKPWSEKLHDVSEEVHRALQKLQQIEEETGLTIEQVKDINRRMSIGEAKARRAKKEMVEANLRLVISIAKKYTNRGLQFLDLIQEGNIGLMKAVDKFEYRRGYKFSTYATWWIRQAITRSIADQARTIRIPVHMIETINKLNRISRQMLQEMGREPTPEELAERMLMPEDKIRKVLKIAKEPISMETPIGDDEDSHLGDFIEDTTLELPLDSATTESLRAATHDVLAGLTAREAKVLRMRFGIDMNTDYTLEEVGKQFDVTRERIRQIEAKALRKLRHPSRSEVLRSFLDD

Molecule	activity [1] [Miller units]	activity [2] [Miller units]	binding result [3]	binding result [4]	binding result [5]
virBp::lacZ reporter promoter	4	140			
B1			binds	binds	binds
